The record followed here is patent US20210347867A1.

The target of the assay is amyloid peptide (not named; Aβ1-42, AβpE3-42 and 4-42 were tested). The experiment in a line: SPR (Biacore); reference not named (variants were made to raise the affinity of RHS71/RKA).

B1: humanized NT4X-167 RHS71/RKH (antibody, V domains shown)
VH: QVQLQESGPGLVKPSETLSLTCTVSGFSLSSYGIHWIRQPPGKGLEWIGVMWSGGITNYYPSLKSRVTISRDTSKNQVSLKLSSVTAADTAVYYCARGSRYALDYWGQGTLVTVSS
VL: DIQMTQSPSSLSASVGDRVTITCRASQDISNYLNWYQQKPGKAPKLLIYYTSRLHSGVPSRFSGSGSGTDFTLTISSLQPEDFATYYCQQGHTLPPTFGGGTKLEIK
B1 returned a fold improvement on the Biacore of 2 fold.
